{
  "source": "patent US8632989B1",
  "about": "“Mutant insulin degrading enzyme and methods of use” (University of Kentucky Research Foundation, priority 2011, dated 2014)",
  "molecules": {"B1": {"name": "IDE: Native rat insulin degrading enzyme (SEQ ID NO:1), expressed as hexahistidine fusion protein in Sf9 insect cells (protein, listed as Rattus norvegicus)", "chain": "MRNGLVWLLHPALPSTLHSILGARPPPVKRLCGFPKQIYSTMNNPAIQRIEDHIVKSPEDKREYRGLELANGIKVLLISDPTTDKSSAALDVHIGSLSDPPNIPGLSHFCEHMLFLGTKKYPKENEYSQFLSEHAGSSNAFTSGEHTNYYFDVSHEHLEGALDRFAQFFLCPLFDASCKDREVNAVDSEHEKNVMNDAWRLFQLEKATGNPKHPFSKFGTGNKYTLETRPNQEGIDVREELLKFHSTYYSSNLMAICVLGRESLDDLTNLVVKLFSEVENKNVPLPEFPEHPFQEEHLKQLYKIVPIKDIRNLYVTFPIPDLQQYYKSNPGHYLGHLIGHEGPGSLLSELKSKGWVNTLVGGQKEGARGFMFFIINVDLTEEGLLHVEDIILHMFQYIQKLRAEGPQEWVFQECKDLNAVAFRFKDKERPRGYTSKIAGKLHYYPLNGVLTAEYLLEEFRPDLIDMVLDKLRPENVRVAIVSKSFEGKTDRTEQWYGTQYKQEAIPEDVIQKWQNADLNGKFKLPTKNEFIPTNFEILALEKDATPYPALIKDTAMSKLWFKQDDKFFLPKACLNFEFFSPFAYVDPLHCNMAYLYLELLKDSLNEYAYAAELAGLSYDLQNTIYGMYLSVKGYNDKQPILLKKITEKMATFEIDKKRFEIIKEAYMRSLNNFRAEQPHQHAMYYLRLLMTEVAWTKDELKEALDDVTLPRLKAFIPQLLSRLHIEALLHGNITKQAALGVMQMVEDTLIEHAHTKPLLPSQLVRYREVQLPDRGWFVYQRRNEVHNNCGIEIYYQTDMQSTSENMFLELFCQIISEPCFNTLRTKEQLGYIVFSGPRRANGIQGLRFIIQSEKPPHYLESRVEAFLITMEKAIEDMTEEAFQKHIQALAIRRLDKPKKLSAECAKYWGEIISQQYNYDRDNIEVAYLKTLSKDDIIKFYKEMLAVDAPRRHKVSVHVLAREMDSCPVVGEFPSQNDINLSEAPPLPQPEVIHNMTEFKRGLPLFPLVKPHINFMAAKL", "modifications": "hexahistidine tag; wild-type Insulin Degrading Enzyme (IDE) from rat"}},
  "key": {"[1]": {"target": "T1, Abz-GGFLRKHGQ-EDDnp (Rattus norvegicus, UniProt P35559)", "T1 construct": "hexahistidine (N); made in house; host or cells: Sf9 insect cells (baculovirus, pFastBac HTb)", "T1 sequence (P35559 41-1019)": "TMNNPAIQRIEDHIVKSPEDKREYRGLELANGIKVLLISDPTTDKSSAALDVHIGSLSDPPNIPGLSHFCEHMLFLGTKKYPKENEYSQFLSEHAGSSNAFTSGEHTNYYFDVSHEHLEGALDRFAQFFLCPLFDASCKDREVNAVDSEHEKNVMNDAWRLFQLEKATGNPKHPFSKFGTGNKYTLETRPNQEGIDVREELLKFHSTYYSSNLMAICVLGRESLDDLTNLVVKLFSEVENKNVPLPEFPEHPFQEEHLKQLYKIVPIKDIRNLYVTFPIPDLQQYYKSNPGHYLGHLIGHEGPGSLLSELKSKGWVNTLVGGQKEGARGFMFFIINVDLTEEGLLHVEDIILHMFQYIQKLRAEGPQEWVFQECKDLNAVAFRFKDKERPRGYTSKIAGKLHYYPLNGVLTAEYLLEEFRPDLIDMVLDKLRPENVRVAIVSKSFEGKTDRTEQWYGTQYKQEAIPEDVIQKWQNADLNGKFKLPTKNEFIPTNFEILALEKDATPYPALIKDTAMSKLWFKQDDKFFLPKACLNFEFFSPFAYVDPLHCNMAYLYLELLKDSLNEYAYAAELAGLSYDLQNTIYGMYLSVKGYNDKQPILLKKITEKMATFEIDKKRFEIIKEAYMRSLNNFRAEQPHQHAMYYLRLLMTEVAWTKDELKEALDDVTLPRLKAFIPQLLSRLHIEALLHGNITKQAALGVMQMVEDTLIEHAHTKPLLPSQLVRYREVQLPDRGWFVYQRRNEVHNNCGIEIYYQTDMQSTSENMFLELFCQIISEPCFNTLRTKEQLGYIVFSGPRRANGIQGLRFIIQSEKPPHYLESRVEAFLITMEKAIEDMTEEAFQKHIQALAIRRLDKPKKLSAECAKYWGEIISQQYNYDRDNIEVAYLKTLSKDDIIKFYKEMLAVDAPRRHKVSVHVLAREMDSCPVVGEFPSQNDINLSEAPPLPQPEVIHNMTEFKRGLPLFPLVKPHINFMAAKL", "test": "Activation by ATP of Abz-[…]-EDDnp hydrolysis, IDE and ATP binding site mutants", "assay_type": "biochemical", "conditions": "10 μM Abz-GGFLRKHGQ-EDDnp as substrate", "protocol": "Activity was determined in 50 mM Tris-HCl, pH 7.4 with 10 μM Abz-[…]-EDDnp (SEQ ID NO:3) as substrate at the indicated concentrations of ATP (panel A), PPPi (panel B) or, TNP-ATP (panel C). Each reaction contained 0.5 μg of enzyme.\n(§1) IDE activity was determined by measuring the increase in fluorescence that occurs when the enzyme cleaves the internally quenched fluorogenic substrate Abz-[…]-EDDnp (SEQ ID NO:3) at the R—K bond (Song et al., Journal of Biologial Chemistry 276, 1152-1155 (2001)). The reaction was followed on a SpectraMax Gemini XS fluorescence plate reader using an excitation and emission wavelengths of 318 nm and 419 nm, respectively. Initial velocities were determined using SoftMax Pro 4.0 and kinetic constants calculated using GraphPad Prism 4.0. ATPase activity was measured by following Pi release with acid-molybdate as described by Harder et al. (Harder et al., Biochemical Journal 298 (Pt 2), 395-401 (1994))."}, "[2]": {"test": "ATPase activity, Pi release with acid-molybdate", "assay_type": "biochemical", "conditions": "1 mM ATP as substrate", "protocol": "as §1"}},
  "data": [
    {"molecule": "B1", "values": [
      {"measurement": "activation by ATP", "setting": "[1]", "result": "roughly 150 fold"},
      {"measurement": "IDE-dependent ATPase activity", "setting": "[2]", "result": "less than 1 nmol/min/mg IDE"}
    ]}
  ]
}
